Results: patent US8487082B2, “Synthetic scFv analogue to the 6313/G2 (anti angiotensin II type 1 receptor) monoclonal antibody variable regions” (Queen Mary & Westfield College, priority 2008, dated 2013)
Entries after “also recorded” stand apart in the source; their conditions may differ.

B1: HuCY: humanised (resurfaced) variant of scFv R6313/G2, SEQ ID NO:27 (protein)
scFv: QVQLVQSGPELVKPGASVKISCKASGYSFTGYNMNWVKQAPGKSLEWIGNIDPYYGGTTYNQKFKGKATLTVDKSSSTAYMQLKSLRSEDTAVYYCAREVDYWGQGTTVTVSSGGGGSGGGGSGGGGSDIVLTQSPASLAVSLGERATISCRASKSVSTSGYSYMHWYQQKPGQPPRLLIYLVSNLESGVPDRFSGSGSGTDFTLTISSVEAEDVAVYYCQHIRELTRSEGTKLEIKR
modifications: HuCY
B2: var3: humanised variant of scFv R6313/G2, framework changes only, SEQ ID NO:28 (protein)
scFv: QVQLVQSGPELVKPGASVKISCKASGYSFTGYNMNWVKQAPGKGLEWIGNIDPYYGGTTYNQKFKGKATLTVDKSSSTAYMQLKSLRSEDTAVYYCAREVDYWGQGTTVTVSSGGGGSGGGGSGGGGSDIVLTQSPASLAVSLGERATISCRASKSVSTSGYSYMHWYQQKPGQPPRLLIYLVSNLESGVPDRFSGSGSGTDFTLTISSVEAEDVAVYYCQHIRELTRSEGTKLEIKR
modifications: var3
B3: var4: humanised variant of scFv R6313/G2 with two further changes in VLCDR2 (LVSDLED), SEQ ID NO:29 (protein)
scFv: QVQLVQSGPELVKPGASVKISCKASGYSFTGYNMNWVKQAPGKGLEWIGNIDPYYGGTTYNQKFKGKATLTVDKSSSTAYMQLKSLRSEDTAVYYCAREVDYWGQGTTVTVSSGGGGSGGGGSGGGGSDIVLTQSPASLAVSLGERATISCRASKSVSTSGYSYMHWYQQKPGQPPRLLIYLVSDLEDGVPDRFSGSGSGTDFTLTISSVEAEDVAVYYCQHIRELTRSEGTKLEIKR
modifications: var4

Columns and labels:
[1] = test system: T47D cells; experiment: Apoptosis - caspase-3/7 activity; type: cell-based; details: 100 nmol/L angiotensin II, 12 hours
Description: Cells were harvested using Trypsin/EDTA and counted.

[2] = test system: T47D cells; experiment: Cell viability assay (XTT); type: cell-based; details: Homo sapiens, Losartan alone, 25 μmol/L
Description: (§1) MCF-7, T47D and MDA-MB-231 breast cancer cells were obtained from The American Tissue Culture Collection (LGC Promochem, Teddington, UK). Rat aortic smooth muscle cells (RASMC) were developed from primary culture (Barker et al., 1996). MCF-7 cells were maintained in Minimal Essential Medium (MEM), T47D and MDA-MB-231 cells in RPMI 1640 medium, and RASMC were maintained in Dulbecco's Modified Eagle's Medium (DMEM). All media were supplemented with 2 mM L-glutamine, 10% fetal bovine serum (FBS), 50 U/ml penicillin and 0.05 mg/ml streptomycin. Cells were maintained at 37° C. in a humidified atmosphere ([…], 5% CO2).
(§2) Confluent cell monolayers were removed from tissue culture flasks using trypsin/EDTA. Cells (15×10^3 per well) were seeded into 96 well tissue culture plates containing the appropriate medium for each cell line. […] Cell viability was assessed by the ability of metabolically active cells to reduce 2,3-bis[2-Methoxy-4-nitro-5-sulphophenyl]-2H-tetrazolium-5-carboxyanilide inner salt (XTT) to the coloured formazan product. Absorbance was measured using a Multiskan Ascent microplate reader (Thermo Labsystem, Helsinki, Finland) at a wavelength of 450 nm and a reference wavelength of 630 nm. Each measurement was performed in triplicate. IC50s were calculated using a non-linear regression formula using GraphPad Prism v4.0 software (GraphPad Software Inc, San Diego Calif., USA).

[3] = test system: MDA-MB-231 cells; experiment: Cell viability assay (XTT); type: cell-based; details: MDA-MB-231, Losartan alone, all concentrations used
Description: as §1, §2

[4] = test system: MCF-7 cells; experiment: Cell viability assay (XTT); type: cell-based; details: MCF-7, Losartan alone, all concentrations used
Description: as §1, §2

[5] = target: peptide antigen EDGIKRIQDDC-biotin (from AT1-receptor N-terminal region) (Rattus norvegicus, UniProt P25095); experiment: Antigen binding ELISA of scFv variants; details: for activity in ELISA compared with murine scFv (12D): FIG. 13, indirect comparison against purified IgM; for binding to peptide antigen by ELISA versus murine scFv (12D and 11B): absorbance 450 nm per mg protein/well, FIG. 12
Description: Enzyme-linked immunosorbant assays (ELISAs) were carried out in Maxisorp 96-well plates coated with Peptide antigen EDGIKRIQDDC-biotin (SEQ ID NO:14) (2-8 ug/ml in carbonate buffer pH 9.6) overnight at 4 or 37 C. The coated wells were blocked using 1% alkaline soluble casein (Blocking buffer) for 1 h at RT, then washed three times with PBS containing 0.1% v/v Tween 20. ScFv samples diluted between 1:1 to 1:100 in PBS-T were added and incubated for 1 h at RT before washing as before. A secondary HRP-conjugated anti-His-Tag antibody was then added (diluted 1:1000 in blocking buffer) for 1 h at RT. Wells were then washed three times in PBS-T then twice with PBS (without Tween 20). 100 μl of TMB substrate solution was added and colour was allowed to develop for 30 min, at which time 100 μl of 2M sulphuric acid was added to stop the reaction. Absorbance at 450 nm was read on a plate reading spectrophotometer. Protein concentrations were determined using an Eppendorf Biophotometer reading at 280 nm and using an extinction coefficient for the scFv of 1.7 as above.

[6] = target: biotinylated peptide antigen (AT1 receptor) (Rattus norvegicus, UniProt P25095); experiment: Quartz crystal microbalance binding (Attana 100); details: 9 μg/ml, 100 second injection period
Description: Data were obtained comparing the characteristics of binding of the scFv variants and IgM to immobilised peptide antigen using the Attana 100 Quartz Crystal Microbalance. This involved use of a streptavidin (0.1 mg/ml)-coated biotin “chip” (gold-plated quartz crystal in an Attana 100 Biosensor (Quartz crystal microbalance (QCM)) (Attana AB, Stockholm, Sweden). Peptide antigen corresponding to that sequence used to raise the original murine hybridoma, biotinylated at the C-terminus, was then run across the chip at a concentration of 4 μg/ml to create a binding target for scFvs and IgM that were subsequently run across the surface of the QCM chip. Attester software (Attana, Sweden) was used to monitor changes in resonance frequency of the QCM chip in response to binding of a test antibody to the antigen. The magnitude of deflection in Hz over the period of sample injection of 100 s in Hz/second was determined for each antibody at a concentration of 9 μg/ml. The rate at which the antibody was then released from the QCM chip was also measured in Hz/second from the straight-line portion of the biosensor trace as antibody gradually departed from the chip and as the resonance frequency of the chip decreased. Running buffer was PBS containing 0.005% Tween 20 (PBST) and this was also used to make antibody dilutions to give a final protein concentration of 9 μg/ml in each case. The Attana 100 was set up with a 50 μl injection loop and was running with a constant pump speed of 20 μl/min. Samples and PBST buffer controls were injected over 100 seconds giving a sample volume across the chip of 33 μl. 100 mM (6.6 μl volume) phosphoric acid solution was used to regenerate the strepavidin-antigen surface between individual experimental sample runs.

Molecule | activity in ELISA compared with murine scFv (12D) [5] | binding to peptide antigen by ELISA versus murine scFv (12D and 11B) [5] | change in resonance frequency (apparent on-rate, Hz/second) compared with IgM [6] | other results
angiotensin II (DRVYIHPF; Angiotensin-2; UniProt P01019 25-32, looked up) [peptide hormone added at 100 nmol/L in the cell assays, reference compound] | – | – | – | caspase-3/7 activity compared with untreated control [1]: inhibited caspase-3/7 activity
CCCCc1nc(Cl)c(CO)n1Cc1ccc(-c2ccccc2-c2nn[nH]n2)cc1 [Losartan, reference compound] | – | – | – | inhibition at 25 µM [2]: 43%; effect on cell survival [3]: unaffected; effect on cell survival [4]: unaffected
B1 | higher activity | more strongly; also recorded: increased binding | – | –
B2 | – | more strongly; also recorded: increased binding | significantly greater increases in resonance frequency; also recorded: significantly greater changes in resonance frequency | –
B3 | higher activity | more strongly; also recorded: increased binding; also recorded: most significantly increased binding | significantly greater increases in resonance frequency; also recorded: significantly greater changes in resonance frequency | increase in binding to the antigen compared with murine scFv ([5]; ELISA, same amount and purity of scFv): 5-10 fold
